Reference: the supplement of paper PMC6757056
± gives the standard deviation of the averaged measurements.

B1: library; a variant is named by its letters at N, in order (parent)
chain: GCUGUCACCGGUGCUUGGUACGUUAUAUUCAGCCGGUCUGAUGAGUCUNNNNNNAGACGAAACAGC

Assays:
(6R,S)-folinic acid [1] = variants of: B1; experiment: normalized RNA/DNA level without ligand (relative to sTRSVctl = 100) (log10 (% of sTRSVctl)); HEK293T overexpressing SLC46A1; higher = less ribozyme self-cleavage, higher mRNA level; settings: without (6R,S)-folinic acid; ligand present: no
Method in brief: (§1)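 Ribozyme switch library plasmids linked to reporters were introduced into HEK293T cells at 4 µg per 6-well well, with ligand, if any, added 1 h before. Total RNA was extracted with EDTA 72 h later, reverse-transcribed, amplified, barcoded and sequenced. RNA level was computed from RNA over DNA reads relative to a spiked-in non-cleaving sequence or the top sequences, then scaled and log-transformed. The top set was 25 sequences, values were ×100 and log10, and the cutoff was ≥100 DNA reads.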

(6R,S)-folinic acid [2] = variants of: B1; experiment: normalized RNA/DNA level with ligand (relative to sTRSVctl = 100) (log10 (% of sTRSVctl)); HEK293T overexpressing SLC46A1; ligand concentration (+) RNA-Seq: 6 mM; higher = less ribozyme self-cleavage, higher mRNA level; settings: with (6R,S)-folinic acid; ligand present: yes
Method in brief: as §1

Variant	normalized RNA/DNA level without ligand (log10) ((6R,S)-folinic acid [1])	normalized RNA/DNA level with ligand (log10) ((6R,S)-folinic acid [2])
GGUAGA	1.995 ± 0.01	2.01 ± 0.022
GGUAGC	1.923 ± 0.015	2.017 ± 0.013
GGUGGU	2.053 ± 0.016	2.03 ± 0.031
GGUGGC	1.98 ± 0.023	2.02 ± 0.037
GGUGGG	2.034 ± 0.014	2.059 ± 0.017
CGUGCU	2.05 ± 0.012	2.05 ± 0.052
CGUGCC	2.068 ± 0.0025	2.01 ± 0.036
CGUGCG	1.974 ± 0.0043	1.99 ± 0.031
CGUGCA	2.01 ± 0.022	2.03 ± 0.021
UGUACG	1.772 ± 0.0054	1.98 ± 0.038
UGUACA	1.958 ± 0.018	2 ± 0.051
UGUACC	2.019 ± 0.0028	2.03 ± 0.057
GGGGGC	1.94 ± 0.038	2.03 ± 0.022
GGGGGU	2.037 ± 0.0098	2.05 ± 0.052
GGGGGA	2.057 ± 0.02	2.05 ± 0.043
GGGGGG	2.045 ± 0.019	2.04 ± 0.061
CGGGCA	2.059 ± 0.0067	2.04 ± 0.0044
CGGGCU	2.09 ± 0.021	2.06 ± 0.03
CGGGCG	1.993 ± 0.005	2.04 ± 0.043
CGGGCC	2.072 ± 0.0092	2.035 ± 0.019

Variant	normalized RNA/DNA level without ligand (log10) ((6R,S)-folinic acid [1])	normalized RNA/DNA level with ligand (log10) ((6R,S)-folinic acid [2])
GGUGAA	1.989 ± 0.0081	2.011 ± 0.02
GGUGAG	1.908 ± 0.012	1.99 ± 0.01
CGGGUU	2 ± 0.024	2 ± 0.051
CGGGUG	1.976 ± 0.0081	2.01 ± 0.047
CGGGUC	2.078 ± 0.0029	2.06 ± 0.038
AGGCGU	2.02 ± 0.025	2.048 ± 0.0022
CGGUUC	2.02 ± 0.0095	2.01 ± 0.07
CGGUUU	2.033 ± 0.017	2.056 ± 0.012
CGGUUG	2.026 ± 0.02	2 ± 0.065
GGUCAC	1.99 ± 0.031	2 ± 0.039
GGUCAA	1.99 ± 0.028	2 ± 0.024
GGUCAU	2.01 ± 0.025	2.01 ± 0.044
GGUCAG	2.039 ± 0.018	2.04 ± 0.035
AGGUGC	2.0042 ± 0.0006	2.01 ± 0.044
AGGUAU	2.009 ± 0.0096	2.04 ± 0.052
AGGUAC	1.982 ± 0.0027	1.995 ± 0.0077
AGGUAG	1.912 ± 0.0057	2 ± 0.077
AGGUAA	1.95 ± 0.024	1.98 ± 0.02
GGGGCA	2.054 ± 0.0064	2.02 ± 0.025
GGGGCU	2.079 ± 0.017	2.055 ± 0.0086

Variant	normalized RNA/DNA level without ligand (log10) ((6R,S)-folinic acid [1])	normalized RNA/DNA level with ligand (log10) ((6R,S)-folinic acid [2])
GGGGCG	2.073 ± 0.016	2.06 ± 0.045
AGGUUG	2.005 ± 0.013	2.04 ± 0.053
AGGUUC	2.02 ± 0.024	2.03 ± 0.045
UGUCCC	2.06 ± 0.024	2.033 ± 0.017
UGUCCG	1.86 ± 0.022	1.99 ± 0.033
UGUCCU	2.03 ± 0.034	2.07 ± 0.026
GGUCGU	2.034 ± 0.015	2.029 ± 0.0084
GGUCGG	2.053 ± 0.02	2.07 ± 0.062
GGUCGA	2.0344 ± 0.00085	2.01 ± 0.026
GGUCGC	1.952 ± 0.012	2 ± 0.032
AGUCUG	1.972 ± 0.0057	2.04 ± 0.048
AGUCUU	2.017 ± 0.0028	1.99 ± 0.028
AGUCUC	2.03 ± 0.016	2.02 ± 0.041
AGUCUA	1.992 ± 0.0093	2.02 ± 0.05
AGUAGA	1.943 ± 0.0031	2.018 ± 0.0096
AGUAGG	1.897 ± 0.0057	2.02 ± 0.021
AGUAGC	1.986 ± 8.8e-05	2 ± 0.039
AGUAGU	1.943 ± 0.0095	2.012 ± 0.019
